Molecular target: C1-esterase inhibitor (human plasma protease C1 inhibitor), purified or in human serum (UniProt P05155)
Sequence (P05155 23-500): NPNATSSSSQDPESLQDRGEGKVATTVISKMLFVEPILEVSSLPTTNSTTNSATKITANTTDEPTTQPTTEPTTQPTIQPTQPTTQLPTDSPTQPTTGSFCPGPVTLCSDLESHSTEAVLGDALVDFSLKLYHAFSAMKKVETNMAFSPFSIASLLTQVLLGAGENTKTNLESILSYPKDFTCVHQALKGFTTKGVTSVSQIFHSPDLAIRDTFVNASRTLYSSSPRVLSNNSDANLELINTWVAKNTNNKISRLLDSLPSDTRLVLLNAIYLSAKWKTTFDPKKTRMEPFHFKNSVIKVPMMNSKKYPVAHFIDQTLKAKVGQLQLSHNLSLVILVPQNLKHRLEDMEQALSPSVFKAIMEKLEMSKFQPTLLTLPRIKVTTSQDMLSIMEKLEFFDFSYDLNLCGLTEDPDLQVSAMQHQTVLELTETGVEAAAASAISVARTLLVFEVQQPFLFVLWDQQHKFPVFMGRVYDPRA

Row | Substance | cleavage of C1-INH (immunoblot) | kallikrein activity (cleavage of chromogenic substrate S-2302)
1 | StcE E435D-His (from pTEG1 in BL21(DE3), strain WAM2726) | While StcE-His is able to degrade C1-INH, we observed no such cleavage with the mutant protein | 
2 | purified kallikrein (Calbiochem) |  | ranging from 88.8% (±2.6% SEM) to 10.3% (±1.3% SEM) activity

From US20040234530
